This passage reports Km, kcat and kcat/Km results from PMC6030132, “Tailoring recombinant lipases: keeping the His-tag favors esterification reactions, removing it favors hydrolysis reactions” (Scientific Reports, 2018).

Data set [1] concerns T1, CCCCCCCCCC(=O)Oc1ccc([N+](=O)[O-])cc1.
T1 construct: full-length lipC12 product (293 residues) from pTEV5lipC12, E. coli BL21(DE3)
The experiment in a line: purified protein. The class given is biochemical, uncultured bacterium. As to conditions: apparent constant, free enzyme, 50 mM Tris-HCl pH 7.5, 1 mM CaCl2, 0.6% Triton X-100, 4% isopropanol, 1% acetonitrile, 25 °C, 95% confidence interval in parentheses.

For data set [2], the system named is T2, CCCCCCCCCC(=O)Oc1ccc([N+](=O)[O-])cc1.
T2 construct: full-length lipC12 product (293 residues) from pTEV5lipC12, E. coli BL21(DE3); His-tag cut off with TEV protease, GASH left at N-terminus
The experiment in a line: purified protein. The class given is biochemical, uncultured bacterium. As to conditions: apparent constant, free enzyme, 50 mM Tris-HCl pH 7.5, 1 mM CaCl2, 0.6% Triton X-100, 4% isopropanol, 1% acetonitrile, 25 °C, 95% confidence interval in parentheses.

As a reminder, the kcat is the number of substrate molecules converted per active site and unit of time at saturation. As usually defined, the kcat/Km is the second-order rate constant that governs catalysis at low substrate concentration. Consider HisTEVS-LipC12 (uncultured bacterium), for which, in data set [1], the Km was 1.77 (1.56–2.02) mM, the kcat amounted to 2.53 s⁻¹ and the kcat/Km came to 1430 M⁻¹ s⁻¹.

As to cLipC12 (uncultured bacterium), in data set [2], the Km is recorded as 1.33 (1.17–1.51) mM, the kcat stood at 2.52 s⁻¹ and the kcat/Km was 1900 M⁻¹ s⁻¹.
